Data published in the supplement of paper PMC10126150.
± gives the standard deviation of the averaged measurements.

Tested on: ATP
Assay: switch fluorescence ratio, 500 uM ATP over buffer (Cy3 cluster intensity, sum of 5 cycles each) (fold (ratio)); higher = stronger signal-on switching upon ATP binding; sequences stand for … in TCGTCGGCAGCGTCAGATGTGTATAAGAGACAGTTTTTTTTTTTTTTTTTTTTTTTTT…TC
Settings: aptamer strand: ATP DNA aptamer (quencher-CACCTGGGGGAGTATTGCGGAGGAAGG + anchor), 100 nM annealed; ATP concentration: 500 uM
In short: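 Between each of five buffer/ATP cycles, the flow-cell was stripped with NaOH and re-annealed. Each cycle imaged Cy3-labelled switching-strand clusters, annealed to 100 nM quencher-labelled ATP aptamer on a modified Illumina MiSeq flow-cell, first in selection buffer and then after 15 min with 500 uM ATP at 22 °C. The fluorescence ratio is summed target-cycle over summed buffer-cycle Cy3 intensity per cluster, averaged per switch-domain sequence, with clusters outside 100-1000 RFU excluded.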
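Further: ATP exposure 15 min at 22 °C before imaging.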

| Sequence | switch fluorescence ratio |
| --- | --- |
| CAAGATTCCA | 1.016 ± 0.0077 |
| CAAGCGACGG | 1.03 ± 0.022 |
| CAAGCGATGG | 1.63 ± 0.065 |
| CAAGGCTCAA | 1 ± 0.0013 |
| CAAGGGCCAG | 0.973 ± 0.07 |
| CAAGGGGGA | 0.995 ± 0.02 |
| CAAGGGGGGG | 0.99 ± 0.034 |
| CAAGGGGGTA | 0.995 ± 0.037 |
| CAAGGGTCCG | 0.991 ± 0.045 |
| CAAGGGTTGT | 0.992 ± 0.0024 |
| CAAGGTTGAG | 0.979 ± 0.034 |
| CAAGTAGGG | 0.956 ± 0.052 |
| CAAGTAGTGG | 1.03 ± 0.011 |
| CAAGTATATT | 0.968 ± 0.032 |
| CAAGTATCAT | 0.996 ± 0.076 |
| CAAGTATGAG | 0.9829 ± 0.0065 |
| CAAGTGACTT | 1.02 ± 0.016 |
| CAAGTGCTTA | 0.9578 ± 0.0081 |
| CAAGTGGCAC | 0.977 ± 0.022 |
| CAAGTTAAGG | 1.02 ± 0.013 |
| CAAGTTTGGG | 0.982 ± 0.019 |
| CAAGTTTTTT | 0.984 ± 0.016 |
| CAATAAAAG | 0.9766 ± 0.0071 |

| Sequence | switch fluorescence ratio |
| --- | --- |
| CAATAAAGCT | 1.07 ± 0.041 |
| CAATACTCAA | 2.14 ± 0.023 |
| CAATACTTG | 1.027 ± 0.0074 |
| CAATAGAGAG | 0.997 ± 0.024 |
| CAATAGGAGA | 0.981 ± 0.028 |
| CAATAGGGGC | 0.969 ± 0.03 |
| CAATATTATG | 1.02 ± 0.02 |
| CAATCAACCG | 1.064 ± 0.0015 |
| CAATCATAGT | 0.989 ± 0.028 |
| CAATCATGG | 1.01 ± 0.019 |
| CAATCTTCGT | 1.02 ± 0.021 |
| CAATGAAATC | 1.02 ± 0.027 |
| CAATGAGGTG | 1.08 ± 0.036 |
| CAATGGAAGG | 1.03 ± 0.025 |
| CAATGGGGGG | 1.02 ± 0.03 |
| CAATGGTCCA | 1.03 ± 0.024 |
| CAATGGTGGT | 1.01 ± 0.028 |
| CAATGTGAGG | 1.01 ± 0.0063 |
| CAATGTGGGA | 1.01 ± 0.021 |
| CAATGTGTTT | 1.01 ± 0.035 |
| CAATGTTGAG | 1 ± 0.032 |
| CAATGTTGAT | 1.01 ± 0.026 |
| CAATTAGGGA | 0.985 ± 0.017 |

| Sequence | switch fluorescence ratio |
| --- | --- |
| CAATTATCGC | 0.988 ± 0.028 |
| CAATTCAGAT | 0.952 ± 0.028 |
| CAATTCATTA | 1.02 ± 0.02 |
| CAATTGCGGG | 0.988 ± 0.055 |
| CAATTGCTGT | 1.01 ± 0.012 |
| CAATTTAATA | 1.01 ± 0.019 |
| CAATTTCGTT | 1.01 ± 0.021 |
| CAATTTTAGG | 0.987 ± 0.018 |
| CACAACGGGA | 0.985 ± 0.029 |
| CACAAGCGAT | 1.42 ± 0.063 |
| CACACAGTAT | 1.0721 ± 0.00011 |
| CACACGTTAT | 1.19 ± 0.019 |
| CACAGGAGGG | 1.03 ± 0.019 |
| CACAGGGCGG | 1.04 ± 0.017 |
| CACAGTGAGT | 0.997 ± 0.021 |
| CACAGTGGTA | 1.03 ± 0.058 |
| CACATCATAT | 1.04 ± 0.039 |
| CACATTATGA | 1.04 ± 0.014 |
| CACCAGAGCT | 1.09 ± 0.026 |
| CACCAGGGCT | 1.6 ± 0.051 |
| CACCGGCTGG | 0.986 ± 0.086 |
| CACCTTACTC | 2.07 ± 0.11 |
| CACGACTTCC | 2.27 ± 0.12 |

| Sequence | switch fluorescence ratio |
| --- | --- |
| CACGAGGAGG | 0.9809 ± 0.0055 |
| CACGAGGTTG | 0.992 ± 0.02 |
| CACGCAGGGT | 1.11 ± 0.12 |
| CACGCATGTT | 1.09 ± 0.015 |
| CACGCGTATG | 1.03 ± 0.011 |
| CACGGAGAGT | 1.14 ± 0.18 |
| CACGGATAGC | 1.07 ± 0.027 |
| CACGGCGTAG | 1.02 ± 0.013 |
| CACGGGGGAC | 1.06 ± 0.021 |
| CACGGGGGAT | 1.03 ± 0.011 |
| CACGGGGTCC | 1.06 ± 0.069 |
| CACGGGTGTT | 1.32 ± 0.12 |
| CACGGTGCGG | 1.01 ± 0.015 |
| CACGTATCTC | 1.2 ± 0.05 |
| CACGTCCAC | 1.44 ± 0.061 |
| CACGTTATAG | 1.19 ± 0.026 |
| CACGTTGTAT | 1.32 ± 0.42 |
| CACTAACTA | 1.121 ± 0.0035 |
| CACTAATGGT | 1.073 ± 0.0072 |
| CACTAGCTCG | 1.02 ± 0.021 |
| CACTAGGGGA | 1 ± 0.028 |
| CACTAGTCTG | 1.01 ± 0.033 |
| CACTATAACT | 1.071 ± 0.0068 |

| Sequence | switch fluorescence ratio |
| --- | --- |
| CACTATAGCG | 1.042 ± 0.0098 |
| CACTCTGTCA | 1.04 ± 0.022 |
| CACTCTTGAT | 1.01 ± 0.019 |
| CACTGAAGTT | 1.026 ± 0.00036 |
| CACTGGGGCA | 1.1 ± 0.15 |
| CACTGGGTGT | 1.24 ± 0.021 |
| CAGAAACGGT | 1 ± 0.047 |
| CAGAACCCGC | 1.1 ± 0.015 |
| CAGAAGTCCA | 0.991 ± 0.052 |
| CAGAATGGTG | 0.978 ± 0.028 |
| CAGAATGTTA | 1 ± 0.038 |
| CAGAATTTAG | 0.996 ± 0.024 |
| CAGACCGGTT | 0.996 ± 0.035 |
| CAGAGAAAGG | 0.997 ± 0.014 |
| CAGAGAAAGT | 0.973 ± 0.038 |
| CAGAGAAGGC | 0.991 ± 0.018 |
| CAGAGACTTT | 0.994 ± 0.012 |
| CAGAGAGTTA | 0.984 ± 0.024 |
| CAGAGGGGAG | 1.03 ± 0.027 |
| CAGAGGGGGT | 0.988 ± 0.017 |
| CAGAGGGTGC | 1.03 ± 0.017 |
| CAGAGGTGGC | 1.07 ± 0.032 |
| CAGAGTGTGA | 1.005 ± 0.0086 |

| Sequence | switch fluorescence ratio |
| --- | --- |
| CAGATAGGTG | 1.15 ± 0.089 |
| CAGATATTAC | 1.06 ± 0.035 |
| CAGATCAGTA | 0.964 ± 0.015 |
| CAGATCCTTA | 1.051 ± 0.0082 |
| CAGATCGGTT | 0.964 ± 0.014 |
| CAGATGGGTA | 0.971 ± 0.025 |
| CAGATGTGGC | 0.927 ± 0.037 |
| CAGATGTTTT | 0.987 ± 0.052 |
| CAGATTCTGT | 0.973 ± 0.023 |
| CAGATTTAAG | 0.994 ± 0.017 |
| CAGATTTAGC | 0.9728 ± 0.0068 |
| CAGCACGCGC | 1.06 ± 0.038 |
| CAGCAGAGGT | 1.02 ± 0.013 |
| CAGCAGATTA | 1.04 ± 0.018 |
| CAGCAGGGGT | 1.24 ± 0.15 |
| CAGCCCAGGT | 4.12 ± 2.7 |
| CAGCGTCCCT | 1.07 ± 0.014 |
| CAGCGTCGT | 1.02 ± 0.025 |
| CAGCGTTCAC | 1.054 ± 0.0092 |
| CAGCTCATGC | 1.0792 ± 0.00059 |
| CAGCTCCCGG | 1.07 ± 0.039 |
| CAGCTTAGGG | 1.01 ± 0.036 |
| CAGCTTGGAT | 0.977 ± 0.013 |

| Sequence | switch fluorescence ratio |
| --- | --- |
| CAGGAAAACG | 1.03 ± 0.018 |
| CAGGAAATGG | 0.999 ± 0.017 |
| CAGGAACTTT | 0.995 ± 0.0012 |
| CAGGAAGCGG | 1.025 ± 0.0027 |
| CAGGACCCGG | 1.071 ± 0.0084 |
| CAGGAGGAAT | 1.242 ± 0.0098 |
| CAGGAGTGAG | 1.0068 ± 0.00044 |
| CAGGATTGGG | 0.973 ± 0.043 |
| CAGGCGCAGG | 1.06 ± 0.051 |
| CAGGCGCTCT | 1.04 ± 0.054 |
| CAGGCGTCGT | 1.035 ± 0.0023 |
| CAGGCTAAAG | 0.989 ± 0.032 |
| CAGGCTAGGC | 1.02 ± 0.056 |
| CAGGCTGGTC | 0.992 ± 0.053 |
| CAGGGAGGAC | 1.01 ± 0.013 |
| CAGGGATTAG | 1.01 ± 0.044 |
| CAGGGATTGA | 0.998 ± 0.0049 |
| CAGGGATTTA | 0.978 ± 0.024 |
| CAGGGCCCTG | 0.995 ± 0.056 |
